assay: soluble on expression in E. coli; label from the status in PepcDB or PDB records

| Sequence | soluble on expression in E. coli |
| --- | --- |
| GQDSEVLLDGVAKLSSHNNVIEDAIEGVDLTLKGKSEPNKPPAEIGVEYDRQSVRSDIENFVSAYNSFYQTSQALSSVDPTTGQKGPLAGDSTVRSADSRLKAVFSSRIDQAPENLKSLTEFGITTTRQGTLEINYDMLDRQLNNNFNELEKFFGGNTGFAKRIEDAIHGITGITGSIRTREKSLTEQNYRLNDDQAALDRRMEGLEKRTHAKFTAMQDATGKMQGQLGALMSALG | not soluble |
| MDYVCSVVFICQSFDLIINRRVISFKKNSLFIVSDKIRRELPVCPSKLRIVDIDKKTCLSFFIDVNNELPGKFTLDKNGYIAEEEPPLSLVFSLFEGIKIADSHSLWLKERLCISLLAMFKKRESVNSFILTNINTFTCKITGIISFNIERQWHLKDIAELIYTSESLIKKRLRDEGTSFTEILRDTRMRYAKKLITSNSYSINVVAQKCGYNSTSYFICAFKDYYGVTPSHYFEKIIGVTDGINKTID | not soluble |
| MAISIKGVNTGVIRKSNNFIALALKIKEPRNKESLFFMSVMELRDLLIALESRLHQKHKLDAAAHLQYEQARDKVIKKMAENIPEILVDELKNADINRRVNTLELTDNQGENLTFVLTLHDGSKCELVVNELQIEMLARAIIHAINNAEMRELALRITSLLDFLPLYDVDCQDNGNLEYDTYSQPEWKHNLFDHYLAVLYRFKDESGKEQFSGAVVKTREATPGKEIEAITRRMLDFSPRLKKLAGVPCQVYVRTVAANNAQPLTQDQCLRALHHLRVQSTSKTAPQAK | not soluble |
| MADGQVAELLLRRLEASDGGLDSAELAAELGMEHQAVVGAVKSLQALGEVIEAELRSTKHWELTAEGEEIAREGSHEARVFRSIPPEGLAQSELMRLPSGKVGFSKAMSNKWIRVDKSAADGPRVFRVVDSMEDEVQRRLQLVRGGQAEKLGEKERSELRKRKLLAEVTLKTYWVSKGSAFSTSISKQETELSPEMISSGSWRDRPFKPYNFLAHGVLPDSGHLHPLLKVRSQFRQIFLEMGFTEMPTDNFIESSFWNFDALFQPQQHPARDQHDTFFLRDPAEALQLPMDYVQRVKRTHSQGGYGSQGYKYNWKLDEARKNLLRTHTTSASARALYRLAQKKPFTPVKYFSIDRVFRNETLDATHLAEFHQIEGVVADHGLTLGHLMGVLREFFTKLGITQLRFKPAYNPYTEPSMEVFSYHQGLKKWVEVGNSGVFRPEMLLPMGLPENVSVIAWGLSLERPTMIKYGINNIRELVGHKVNLQMVYDSPLCRLDAEPRPPPTQEAA | soluble |
| MGSDKIHHHHHHMSNTVRAISPDITLFNKTLTFQEISQNTREAVIYIHGGAWNDPENTPNDFNQLANTIKSMDTESTVCQYSIEYRLSPEITNPRNLYDAVSNITRLVKEKGLTNINMVGHSVGATFIWQILAALKDPQEKMSEAQLQMLGLLQIVKRVFLLDGIYSLKELLVEYPEYDCFTRLAFPDGIQMYEEEPSRVMPYVKKALSRFSIDMHLVHSYSDELLTLRQTNCLISCLQDYQLSFKLYLDDLGLHNDVYKNGKVAKYIFDNIC | not soluble |
| MGSDKIHHHHHHMEQVDMGPAQAPPLFSGQLDARTRAASVDLHGCNVDYWVYEPVSVTAETRTMLVVHGFRGDHHGLLRVADQLPDMRLIMPDLPGFGSSDAFPDGGHSVRRYGQFISDFMAALGLGPDTVLLGHSFGSIVASHFAAANPGAVFPLILINPIAAPALEGPKGVMTKLAVIYYEASARLPRALGLYLLRSRLIVRVMSMAMAKTRDKQLLQFIHGQHNAYFSAFANRDSLLESFKASVGSNVSEVAPDLSLPVLLIAGEKDEIAMLPDQHKLQALLPDGTLEVIPGVGHLIHYETPQPAAGFIRRFLKDHPA | not soluble |
| MCDISTEDQLLEFARKAAESGDQTQTFEFKKHIGFLIRHLNVFPQPYNTLETSRNTIFLFAISSLDLLGELDNLLTPERRQAYIDWIYGLQFTNGNVCGFRGSHSCENSGYDEANLAQTYSALLSLAILGDDLKKVDRKAILKTVKTAQRDNGCFWSQGVGSESDMRFVFCAVAISHILDGDKEQTIDWTKLAGFLRQSLNIDGGIGQAPGDESHGGSTFCAIASLALSNRLWTEEVLTRRDIDRLIRWAIQKQDIGFHGRAHKPDDSCYAFWIGATLKILNAYHLVSKQHLREFLMICQHPHIGGFCKYPEPGGYSDILHTYFSIAALSLLGEPAVNPVHPSLNVSMRVAERIARLQFD | not soluble |
